The results in this text go back to IntAct's records for PubMed 24970085.

The labels stand for the following.
B1: Lysosome-associated membrane glycoprotein 1 (Homo sapiens), P11279 (parent)
chain: MAAPGSARRPLLLLLLLLLLGLMHCASAAMFMVKNGNGTACIMANFSAAFSVNYDTKSGPKNMTFDLPSDATVVLNRSSCGKENTSDPSLVIAFGRGHTLTLNFTRNATRYSVQLMSFVYNLSDTHLFPNASSKEIKTVESITDIRADIDKKYRCVSGTQVHMNNVTVTLHDATIQAYLSNSSFSRGETRCEQDRPSPTTAPPAPPSPSPSPVPKSPSVDKYNVSGTNGTCLLASMGLQLNLTYERKDNTTVTRLLNINPNKTSASGSCGAHLVTLELHSEGTTVLLFQFGMNASSSRFFLQGIQLNTILPDARDPAFKAANGSLRALQATVGNSYKCNAEEHVRVTKAFSVNIFKVWVQAFKVEGGQFGSVEECLLDENSMLIPIAVGGALAGLVLIVLIAYLVGRKRSHAGYQTI

This assay covers variants of B1. The settings on record: with glyc_lassj GPC.
Regarding MAAPGSARRPLLLLLLLLLLGLMHCASAAMFMVKNGNGTACIMANFSAAFSVNYDTKSGPKNMTFDLPSDATVVLSRSSCGKENTSDPSLVIAFGRGHTLTLNFTRNATRYSVQLMSFVYNLSDTHLFPNASSKEIKTVESITDIRADIDKKYRCVSGTQVHMNNVTVTLHDATIQAYLSNSSFSRGETRCEQDRPSPTTAPPAPPSPSPSPVPKSPSVDKYNVSGTNGTCLLASMGLQLNLTYERKDNTTVTRLLNINPNKTSASGSCGAHLVTLELHSEGTTVLLFQFGMNASSSRFFLQGIQLNTILPDARDPAFKAANGSLRALQATVGNSYKCNAEEHVRVTKAFSVNIFKVWVQAFKVEGGQFGSVEECLLDENSMLIPIAVGGALAGLVLIVLIAYLVGRKRSHAGYQTI [N76S], the “effect of a mutation on the interaction” value is reported as “disrupting interaction”.
